One molecule from patent US6140058, “Activation of p53 protein” (Newburn Ellis) can be followed below.

The target of data set [1] is T1, p53 wild type (Homo sapiens, UniProt P04637 P04637:1-393). The data set can be described thus: EMSA; casein kinase II-activated, 1 mM ATP. Conditions: tags: bacterial expression, Fraction III; chain copies: 4 inferred; label: 32P; Hind III compatible overhangs. As to the method: (§1) In the first stage, wild type p53 (60 ng) or mutant forms of p53 (180 ng) was incubated with ATP and the indicated activating protein at 30° C. for 30 minutes. In the second stage, the consensus site oligonucleotide was added to the reactions to assay for sequence-specific DNA binding. (A) PAb421; lane 1, 3 and 5 (p53, p53 His 273, and p53 Lys285, respectively), lanes 2, 4 and 6 (PAb421 and p53, p53 His273, and p53 Lys285, respectively). (B) DnaK; lanes 1, 5, and 9 (p53, p53 His273, and p53 Lys285, respectively), lanes 2, 6 and 10 (DO-1 and p53, p53 His273, and p53 Lys285, respectively), lanes 3, 7 and 11 (DnaK and p53, p53 His273, and p53 Lys285, respectively), lanes 4, 8 and 12 (DnaK and p53, p53 His273, and p53 Lys285, respectively, followed by DO-1). […] PAb421-activated p53 (solid bar), DnaK-activated p53 (open bar), casein kinase II-activated p53 (stippled bar).
T1 sequence (P04637 whole entry, one chain of several): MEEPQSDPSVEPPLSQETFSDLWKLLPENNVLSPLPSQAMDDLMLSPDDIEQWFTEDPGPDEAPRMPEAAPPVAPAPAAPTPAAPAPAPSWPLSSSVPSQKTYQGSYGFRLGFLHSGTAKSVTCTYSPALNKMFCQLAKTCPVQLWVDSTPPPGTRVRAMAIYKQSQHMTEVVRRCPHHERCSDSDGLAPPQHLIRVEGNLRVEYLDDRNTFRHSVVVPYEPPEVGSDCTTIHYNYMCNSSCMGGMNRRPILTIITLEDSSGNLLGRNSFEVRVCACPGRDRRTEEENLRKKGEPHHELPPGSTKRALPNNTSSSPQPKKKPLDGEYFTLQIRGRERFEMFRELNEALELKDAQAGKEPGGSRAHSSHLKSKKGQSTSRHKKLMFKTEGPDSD

The target in data set [2] is T1, p53 wild type. The data set can be described thus: EMSA; DnaK-activated, 1 mM ATP. Conditions: tags: bacterial expression, Fraction III; chain copies: 4 inferred; label: 32P; Hind III compatible overhangs. As to the method: as §1

B1: PG p53 consensus site (dsDNA)
DNA 1: AGCTTAGACATGCCTAGACATGCCTA
DNA 2: AGCTTAGGCATGTCTAGGCATGTCTA
Consider B1, for which the results for the activity with p53 wild type [1] and with p53 wild type [2] were 64 fmol DNA bound/ug protein and 57 fmol DNA bound/ug protein, respectively.
